From publication PMC11381335, “Unraveling the structure and function of a novel SegC protein interacting with the SegAB chromosome segregation complex in Archaea” (Nucleic Acids Research, 2024)

Target: T1, SegC1-155 (UniProt Q981B4 1-155, del156-165)
T1 sequence: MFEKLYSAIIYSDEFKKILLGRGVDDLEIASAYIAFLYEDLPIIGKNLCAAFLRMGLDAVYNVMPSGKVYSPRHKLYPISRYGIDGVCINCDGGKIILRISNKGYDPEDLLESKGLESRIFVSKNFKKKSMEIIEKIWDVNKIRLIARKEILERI
Test: fluorescence polarization; FP: 20 mM Tris-HCl pH 7.5, 100 mM NaCl, 2 mM MgCl2, 5 nM Cy3-DNA, room temperature; EMSA: same buffer, 10 nM Cy3-DNA, 37 C 30 min, 4-12% TBE gel
Conditions: protein: recombinant; tags: C-terminal His6; label: 5' Cy3; 20 bp paired with 3' overhang 1 nt at each end (from printed strands)

B1: 21-bp site 1 (S1) dsDNA (dsDNA)
DNA 1: ACGTAGAAGAGTCTAGACTGA
DNA 2: CAGTCTAGACTCTTCTACGTA
B1: no binding.
